Test results reported in the supplement of paper PMC6757056.
± gives the standard deviation of the averaged measurements.

B1: library; a variant is named by its letters at N, in order (parent)
chain: GCUGUCACCGGUGUAUUACCCUAGUGGUCGACCGGUCUGAUGAGUCUNNNNNNAGACGAAACAGC

Columns and labels:
hypoxanthine [1] = variants of: B1; experiment: FACS-Seq fitted mean relative fluorescence mCherry/BFP without ligand (log10 relative fluorescence); ligand: hypoxanthine (xanthine aptamer); higher = higher reporter protein expression; conditions: HEK293T, ligand present: no
Outline: (§1)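 HEK293T libraries were lentivirally transduced with an mCherry reporter carrying the ribozyme switch and an EF1α-BFP marker, enriched, and incubated for 48 h with or without ligand before sorting into 6 bins by mCherry/BFP. Genomic DNA from each bin was PCR-amplified, barcoded and sequenced on MiSeq. Fluorescence is the fitted normal mean of the bin counts. The fit used log10(mCherry/BFP), and means were scaled to five spiked-in control ribozymes.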

hypoxanthine [2] = variants of: B1; experiment: normalized RNA/DNA level with ligand (relative to sTRSVctl = 100) (log10 (% of sTRSVctl)); ligand: hypoxanthine (xanthine aptamer); higher = less ribozyme self-cleavage, higher mRNA level; conditions: ligand concentration (+) RNA-Seq: 5 mM, HEK293T, reporter: mCherry (pCS4076), ligand present: yes
Outline: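 RNA level was computed as RNA reads over DNA reads divided by a spiked-in non-cleaving sequence or by the top sequences, then scaled and log-transformed. Scaling was ×100 with log10, the top group was 25 sequences, and the threshold was ≥100 DNA reads. The reads came from HEK293T cells transfected at 4 µg per 6-well well with ribozyme switch library plasmids (mCherry, or eGFP in some ligand experiments). Total RNA was extracted with EDTA 72 h after transfection, with any ligand added 1 h before it.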

hypoxanthine [3] = variants of: B1; experiment: normalized RNA/DNA level without ligand (relative to sTRSVctl = 100) (log10 (% of sTRSVctl)); ligand: hypoxanthine (xanthine aptamer); higher = less ribozyme self-cleavage, higher mRNA level; conditions: HEK293T, reporter: mCherry (pCS4076), ligand present: no
Protocol: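 Hammerhead (sTRSV) ribozyme switch libraries with a ligand aptamer grafted on stem I and a randomized N4-6 loop II, cloned into the 3' UTR of mCherry and transiently transfected into HEK293T cells; RNA-Seq 72 h post transfection with ligand added 1 h before transfection; RNA read count / plasmid DNA read count normalized to the non-cleaving sTRSVctl (x100), log10; sequences with >100 DNA reads. FACS-Seq: lentiviral library sorted into 6 bins after 48 h ligand, log-normal fit mean of mCherry/BFP scaled to controls. Printed sequences are partial switch sequences.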

hypoxanthine [4] = variants of: B1; experiment: FACS-Seq fitted mean relative fluorescence mCherry/BFP with ligand (log10 relative fluorescence); ligand: hypoxanthine (xanthine aptamer); ligand concentration (+) FACS-Seq: 5 mM; higher = higher reporter protein expression; conditions: HEK293T, ligand present: yes
Outline: as §1

| Variant | FACS-Seq fitted mean (log10) (hypoxanthine [1]) | normalized RNA/DNA level with ligand (log10) (hypoxanthine [2]) | normalized RNA/DNA level without ligand (log10) (hypoxanthine [3]) | FACS-Seq fitted mean (log10) (hypoxanthine [4]) |
| --- | --- | --- | --- | --- |
| ACUGCA | 0.637 ± 0.031 | 1.96 ± 0.028 | 1.83 ± 0.074 | 0.478 ± 0.012 |
| UCUGGG | 0.132 ± 0.074 | 1.97 ± 0.055 | 1.8 ± 0.04 | 0.368 ± 0.054 |
| UCUGGA | 0.147 ± 0.0055 | 1.85 ± 0.043 | 1.6 ± 0.031 | 0.462 ± 0.029 |
| UCUGGC | 0.393 ± 0.029 | 1.94 ± 0.0059 | 1.87 ± 0.044 | 0.508 ± 0.055 |
| ACUUAA | 0.504 ± 0.046 | 1.933 ± 0.0065 | 1.787 ± 0.01 | 0.596 ± 0.075 |
| ACUUAG | 0.227 ± 0.048 | 1.81 ± 0.025 | 1.52 ± 0.061 | 0.503 ± 0.042 |
| CCGUGU | 0.225 ± 0.038 | 1.89 ± 0.12 | 1.69 ± 0.017 | 0.616 ± 0.025 |
| CCGUGG | 0.237 ± 0.043 | 1.823 ± 0.0069 | 1.23 ± 0.16 | 0.718 ± 0.053 |
| CCGUGA | 0.311 ± 0.044 | 1.973 ± 0.0073 | 1.565 ± 0.012 | 0.64 ± 0.017 |
| UCUUUA | 0.261 ± 0.0068 | 1.958 ± 0.004 | 1.9 ± 0.085 | 0.327 ± 0.02 |
| ACUACU | 0.265 ± 0.031 | 1.93 ± 0.069 | 1.821 ± 0.01 | 0.443 ± 0.046 |
| ACUACG | 0.398 ± 0.086 | 1.93 ± 0.071 | 1.471 ± 0.0099 | 0.666 ± 0.077 |
| UGAAGA | 0.306 ± 0.01 | 1.896 ± 0.015 | 1.55 ± 0.025 | 0.576 ± 0.08 |
| UGAAGU | 0.226 ± 0.04 | 1.87 ± 0.037 | 1.555 ± 0.012 | 0.496 ± 0.012 |
| GCGUUA | 0.535 ± 0.018 | 1.94 ± 0.037 | 1.65 ± 0.073 | 0.594 ± 0.022 |
| GCGUUG | 0.142 ± 0.042 | 1.78 ± 0.034 | 1.3 ± 0.027 | 0.658 ± 0.021 |
| GCUACC | 0.407 ± 0.037 | 1.91 ± 0.07 | 1.76 ± 0.024 | 0.599 ± 0.028 |
| GCUACG | 0.064 ± 0.029 | 1.95 ± 0.078 | 1.517 ± 0.015 | 0.42 ± 0.0069 |
